Source: patent US10005829B2, “Synthetic linear apelin mimetics for the treatment of heart failure” (priority 2012, dated 2018)
[ ]: non-standard residue; d: D form. pGlu = O=C1CC[C@@H](C(=O)O)N1; dNle = CCCC[C@@H](N)C(=O)O; Aib = CC(C)(N)C(=O)O

T1: APJ receptor (human, UniProt P35414 1-380)
T1 sequence (looked up): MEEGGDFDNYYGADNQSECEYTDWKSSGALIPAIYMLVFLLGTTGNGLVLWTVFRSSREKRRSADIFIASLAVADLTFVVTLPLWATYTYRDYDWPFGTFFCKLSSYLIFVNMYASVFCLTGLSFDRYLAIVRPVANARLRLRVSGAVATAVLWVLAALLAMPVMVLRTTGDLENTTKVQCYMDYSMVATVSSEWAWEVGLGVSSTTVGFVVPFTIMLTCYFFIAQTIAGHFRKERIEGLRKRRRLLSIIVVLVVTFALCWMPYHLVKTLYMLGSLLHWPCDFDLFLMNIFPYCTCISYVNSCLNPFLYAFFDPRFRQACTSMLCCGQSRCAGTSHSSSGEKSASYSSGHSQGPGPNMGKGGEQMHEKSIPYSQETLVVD

B1: pE-R-P-R-L-(D-Leu)-H-K-G-P-nle-a-f-OH (peptide)
peptide: [pGlu]RPRL[dL]HKGP[dNle][dA][dF]-OH
SMILES: CCCC[C@@H](NC(=O)[C@@H]1CCCN1C(=O)CNC(=O)[C@H](CCCCN)NC(=O)[C@H](Cc1c[nH]cn1)NC(=O)[C@@H](CC(C)C)NC(=O)[C@H](CC(C)C)NC(=O)[C@H](CCCNC(=N)N)NC(=O)[C@@H]1CCCN1C(=O)[C@H](CCCNC(=N)N)NC(=O)[C@@H]1CCC(=O)N1)C(=O)N[C@H](C)C(=O)N[C@H](Cc1ccccc1)C(=O)O
B2: pE-R-P-R-L-k-H-K-G-P-nle-a-f-OH (peptide)
peptide: [pGlu]RPRL[dK]HKGP[dNle][dA][dF]-OH
SMILES: CCCC[C@@H](NC(=O)[C@@H]1CCCN1C(=O)CNC(=O)[C@H](CCCCN)NC(=O)[C@H](Cc1c[nH]cn1)NC(=O)[C@@H](CCCCN)NC(=O)[C@H](CC(C)C)NC(=O)[C@H](CCCNC(=N)N)NC(=O)[C@@H]1CCCN1C(=O)[C@H](CCCNC(=N)N)NC(=O)[C@@H]1CCC(=O)N1)C(=O)N[C@H](C)C(=O)N[C@H](Cc1ccccc1)C(=O)O
B3: pE-R-P-R-L-a-h-K-G-P-nle-a-f-OH (peptide)
peptide: [pGlu]RPRL[dA][dH]KGP[dNle][dA][dF]-OH
B4: pE-R-P-R-L-a-Aib-K-G-P-nle-a-f-OH (peptide)
peptide: [pGlu]RPRL[dA][Aib]KGP[dNle][dA][dF]-OH
SMILES: CCCC[C@@H](NC(=O)[C@@H]1CCCN1C(=O)CNC(=O)[C@H](CCCCN)NC(=O)C(C)(C)NC(=O)[C@@H](C)NC(=O)[C@H](CC(C)C)NC(=O)[C@H](CCCNC(=N)N)NC(=O)[C@@H]1CCCN1C(=O)[C@H](CCCNC(=N)N)NC(=O)[C@@H]1CCC(=O)N1)C(=O)N[C@H](C)C(=O)N[C@H](Cc1ccccc1)C(=O)O
B5: pE-R-P-R-L-s-H-K-G-P-nle-a-f-OH (peptide)
peptide: [pGlu]RPRL[dS]HKGP[dNle][dA][dF]-OH
SMILES: CCCC[C@@H](NC(=O)[C@@H]1CCCN1C(=O)CNC(=O)[C@H](CCCCN)NC(=O)[C@H](Cc1c[nH]cn1)NC(=O)[C@@H](CO)NC(=O)[C@H](CC(C)C)NC(=O)[C@H](CCCNC(=N)N)NC(=O)[C@@H]1CCCN1C(=O)[C@H](CCCNC(=N)N)NC(=O)[C@@H]1CCC(=O)N1)C(=O)N[C@H](C)C(=O)N[C@H](Cc1ccccc1)C(=O)O
B6: pE-R-P-R-L-a-H-K-G-Pip-nle-a-f-OH (peptide)
peptide: ERPRLAHKGXLAF
modifications: pE (pyroglutamic acid) at 1; D-Ala at 6; Pip (pipecolic acid) at 10; D-Nle at 11; D-Ala at 12; D-Phe at 13
B7: pE-R-P-R-L-a-H-K-G-P-nle-(D-Leu)-f-OH (peptide)
peptide: [pGlu]RPRL[dA]HKGP[dNle][dL][dF]-OH
SMILES: CCCC[C@@H](NC(=O)[C@@H]1CCCN1C(=O)CNC(=O)[C@H](CCCCN)NC(=O)[C@H](Cc1c[nH]cn1)NC(=O)[C@@H](C)NC(=O)[C@H](CC(C)C)NC(=O)[C@H](CCCNC(=N)N)NC(=O)[C@@H]1CCCN1C(=O)[C@H](CCCNC(=N)N)NC(=O)[C@@H]1CCC(=O)N1)C(=O)N[C@H](CC(C)C)C(=O)N[C@H](Cc1ccccc1)C(=O)O
B8: pE-R-P-R-L-a-H-K-G-P-nle-p-f-OH (peptide)
peptide: [pGlu]RPRL[dA]HKGP[dNle][dP][dF]-OH
SMILES: CCCC[C@@H](NC(=O)[C@@H]1CCCN1C(=O)CNC(=O)[C@H](CCCCN)NC(=O)[C@H](Cc1c[nH]cn1)NC(=O)[C@@H](C)NC(=O)[C@H](CC(C)C)NC(=O)[C@H](CCCNC(=N)N)NC(=O)[C@@H]1CCCN1C(=O)[C@H](CCCNC(=N)N)NC(=O)[C@@H]1CCC(=O)N1)C(=O)N1CCC[C@@H]1C(=O)N[C@H](Cc1ccccc1)C(=O)O

Target: T1, APJ receptor
Experiment: cell-based or functional assay

hAPJ Ca^2+ Flux EC50	Binder
155 nM	B1
1060 nM	B2
8.8 nM	B3
2.1 nM	B4
0.9 nM	B5
2.3 nM	B6
3.2 nM	B7
1.1 nM	B8
